Assay [1] concerns the target T1, Recombinant Human Her3 (Her3/ErbB3 extracellular domain) (human, UniProt P21860 20-643).
T1 construct: Analyte of the BIAcore assay; also called Her3 ECD; human Her3/ErbB3 extracellular domain
In words: SPR (BIAcore), Mab captured by anti-IgG Fc on CM5 chip, recombinant human Her3 as analyte, 25 °C. Here is the method: All experiments were performed at 25° C. at a flow rate of 40 μl/min. To prepare a BIAcore assay, an anti-human IgG-Fc antibody (50 μg/ml each in acetate buffer, pH 5.0) was immobilized onto a carboxymethyl dextran sensorchip (CM5) using amine coupling procedures as described by the manufacturer. 10000 resonance units (RU) of anti-mouse IgG Fc antibodies were linked respectively onto Flowcells (FC) 1 and 2. Purified Mabs to be tested were diluted at a concentration of 5 μg/ml in 0.5% P20, HBS-EP buffer and injected on FC2 to reach 500 to 1000 RU. FC1 was used as the reference cell. Specific signals correspond to the difference of signals obtained on FC2 versus FC1. The analyte (Recombinant Human Her3, apparent molecular weight 97 kDa) was injected during 90 sec at 5 different concentrations (100, 50, 25, 12.5 and 6.25 nM) in 0.5% P20, HBS-EP buffer. These concentrations were prepared from stock solution in 0.5% P20, HBS-EP. The dissociation phase of the analyte was monitored over a 10 minutes period. Running buffer was also injected under the same conditions as a double reference. After each cycle (antibody+Her3 injection), both Flowcells were regenerated by injecting 20 to 45 μl of Glycine-HCl buffer pH 1.5. This regeneration is sufficient to eliminate all Mabs and Mabs/Her3 complexes captured on the sensorchip. Table 1 listed binding KD for Her3 binding monoclonal antibodies.
For orientation: In SPR one partner is held on a chip, and binding of the other changes the refractive index at the surface.

In assay [2] the target is T2, human Her3 receptor on cells (T47D, MCF7) (human, UniProt P21860 20-1342). Kind of assay: cell-based or functional assay.
Assay [3] concerns the target T3, Her3/Avi/His10 receptor (Homo sapiens (Human), UniProt P21860 20-643, limits assumed).
T3 construct: Soluble tagged receptor of the AlphaScreen assay; The antibodies are called anti-hHer3 there; not shown: Avi tag; His10 tag (ten histidines by its name)
In words: AlphaScreen competition; antibody titrated against 10 nM biotinylated NRG-1 beta and 10 nM Her3/Avi/His10; n = 3. Here is the method: (§1) SDI or Genovac purified anti-hHer3 Mabs were serially diluted two-fold into an assay buffer made from 25 mM Hepes, 100 mM NaCl, 0.5% BSA and 0.05% Tween20 in an opaque/white, half-well area plate (Costar). Mouse IgG1 antibody was used as a negative control (Southern Biotech; cat #010201). Biotinylated NRG-1 beta ligand and Her3/Avi/His₁₀ receptor were added sequentially at 10 nM concentration to the assay plate containing serially diluted antibodies. This mixture of receptor, ligand and the antibodies was incubated at room temperature with gentle shaking for 90 minutes. AlphaScreen Streptavidin Donor beads and His-Nickel chelate Acceptor beads were added into the assay at a final concentration of 20 μg/ml each. The light sensitive beads were handled under chromagreen filtered light. The assay plates were covered with foil and incubated at room temperature with gentle shaking for 1 hour. The plates were read in PE EnVision plate reader equipped with an Alpha module (dedicated laser for excitation and designed to measure the signal above the well). Table 7 listed IC₅₀ values in ligand blocking that were estimated using four parameter curve fitting with concentration titration graphs (FIGS. 7 A&B).
(In Alpha technology, singlet oxygen from a donor bead excites a nearby acceptor bead.)

The target of assay [4] is T2, human Her3 receptor on cells (T47D, …). Kind of assay: cell-based or functional assay. This is another data set of the same source.
In assay [5] the target is T4, Her4 on CHO cells (CHO-Her4) (UniProt Q15303 26-1308, limits assumed).
T4 construct: whole, on cells
Kind of assay: FACS on CHO-Her4 cells, purified IgG, R-PE anti-mouse IgG. As to the method:
(§2) CHO-Her2, CHO-Her4, CHO-EGFR cells were harvested and resuspended in PBS, 2% FBS at a concentration of approximately 1×10⁶/ml. Cells were stained with purified IgGs at 4° C. for 40 min. Cells were washed with 4 mL PBS, 2% FBS, then centrifuged at 1200 rpm for 10 minutes. Supernatant was removed. Cells were stained with R-PE conjugated anti-mouse IgG at 4° C. for 30 min. Cells were washed with 4 mL PBS, 2% FBS, then centrifuged at 1200 rpm for 10 minutes. Supernatant was removed and cell pellets were fixed in 1% formaldehyde. Cells were analyzed on a FACS Calibur (BD Biosciences) by collecting 20,000 events from gate 1.

In assay [6] the target is T2, human Her3 receptor on cells (T47D, …). Kind of assay: cell-based or functional assay. This is another data set of the same source.
Assay [7] addresses T5, Her2 on CHO cells (CHO-Her2) (UniProt P04626 23-1255, limits assumed).
T5 construct: whole, on cells
Kind of assay: FACS on CHO-Her2 cells, purified IgG, R-PE anti-mouse IgG. Here is the method: as §2

Assay [8] addresses T2, human Her3 receptor on cells (T47D, …). Kind of assay: cell-based or functional assay. This is another data set of the same source.
Assay [9] addresses T3, Her3/Avi/His10 receptor. In words: AlphaScreen ligand blocking: antibody titrated against 10 nM biotinylated NRG-1 beta and 10 nM Her3/Avi/His10, % signal. As to the method:
as §1

In assay [10] the target is T6, EGFR on CHO cells (CHO-EGFR) (UniProt P00533 25-1210, limits assumed).
T6 construct: whole, on cells
Kind of assay: FACS on CHO-EGFR cells, purified IgG, R-PE anti-mouse IgG. Here is the method:
as §2

T4 sequence (Q15303 26-1308 limits assumed): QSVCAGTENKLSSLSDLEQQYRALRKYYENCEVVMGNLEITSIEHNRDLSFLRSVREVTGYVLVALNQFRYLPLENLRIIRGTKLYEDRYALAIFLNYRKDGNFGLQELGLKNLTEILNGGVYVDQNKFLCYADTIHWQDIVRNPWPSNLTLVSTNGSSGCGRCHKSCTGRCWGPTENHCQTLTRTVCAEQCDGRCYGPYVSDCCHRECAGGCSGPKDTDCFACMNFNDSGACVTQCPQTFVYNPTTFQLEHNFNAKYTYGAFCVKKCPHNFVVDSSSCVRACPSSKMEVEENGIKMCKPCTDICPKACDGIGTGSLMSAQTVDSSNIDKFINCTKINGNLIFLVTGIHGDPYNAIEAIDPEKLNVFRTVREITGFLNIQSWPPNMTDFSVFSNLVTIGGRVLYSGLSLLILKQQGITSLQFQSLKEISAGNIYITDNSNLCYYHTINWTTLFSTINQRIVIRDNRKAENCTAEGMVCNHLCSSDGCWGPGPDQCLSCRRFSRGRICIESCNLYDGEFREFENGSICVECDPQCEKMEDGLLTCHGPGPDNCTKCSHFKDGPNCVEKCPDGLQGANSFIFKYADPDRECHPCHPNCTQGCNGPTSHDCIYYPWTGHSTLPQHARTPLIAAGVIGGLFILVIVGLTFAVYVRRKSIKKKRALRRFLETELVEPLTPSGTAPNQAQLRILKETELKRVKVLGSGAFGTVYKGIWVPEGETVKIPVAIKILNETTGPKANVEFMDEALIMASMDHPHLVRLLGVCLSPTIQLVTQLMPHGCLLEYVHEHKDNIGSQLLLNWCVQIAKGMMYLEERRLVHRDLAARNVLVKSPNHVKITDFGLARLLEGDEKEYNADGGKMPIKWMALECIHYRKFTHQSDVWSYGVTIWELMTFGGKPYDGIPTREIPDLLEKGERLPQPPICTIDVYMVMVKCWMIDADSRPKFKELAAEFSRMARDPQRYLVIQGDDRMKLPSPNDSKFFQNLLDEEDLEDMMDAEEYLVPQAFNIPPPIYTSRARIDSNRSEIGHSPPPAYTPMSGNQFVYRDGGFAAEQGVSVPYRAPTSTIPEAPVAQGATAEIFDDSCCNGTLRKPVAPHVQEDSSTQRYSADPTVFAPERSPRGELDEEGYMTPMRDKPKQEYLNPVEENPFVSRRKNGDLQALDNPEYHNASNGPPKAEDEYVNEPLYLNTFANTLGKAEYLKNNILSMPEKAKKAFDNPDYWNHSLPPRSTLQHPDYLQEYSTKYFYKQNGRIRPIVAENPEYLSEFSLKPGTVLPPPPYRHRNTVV
T2 sequence (P21860 20-1342 limits assumed, stated change not applied): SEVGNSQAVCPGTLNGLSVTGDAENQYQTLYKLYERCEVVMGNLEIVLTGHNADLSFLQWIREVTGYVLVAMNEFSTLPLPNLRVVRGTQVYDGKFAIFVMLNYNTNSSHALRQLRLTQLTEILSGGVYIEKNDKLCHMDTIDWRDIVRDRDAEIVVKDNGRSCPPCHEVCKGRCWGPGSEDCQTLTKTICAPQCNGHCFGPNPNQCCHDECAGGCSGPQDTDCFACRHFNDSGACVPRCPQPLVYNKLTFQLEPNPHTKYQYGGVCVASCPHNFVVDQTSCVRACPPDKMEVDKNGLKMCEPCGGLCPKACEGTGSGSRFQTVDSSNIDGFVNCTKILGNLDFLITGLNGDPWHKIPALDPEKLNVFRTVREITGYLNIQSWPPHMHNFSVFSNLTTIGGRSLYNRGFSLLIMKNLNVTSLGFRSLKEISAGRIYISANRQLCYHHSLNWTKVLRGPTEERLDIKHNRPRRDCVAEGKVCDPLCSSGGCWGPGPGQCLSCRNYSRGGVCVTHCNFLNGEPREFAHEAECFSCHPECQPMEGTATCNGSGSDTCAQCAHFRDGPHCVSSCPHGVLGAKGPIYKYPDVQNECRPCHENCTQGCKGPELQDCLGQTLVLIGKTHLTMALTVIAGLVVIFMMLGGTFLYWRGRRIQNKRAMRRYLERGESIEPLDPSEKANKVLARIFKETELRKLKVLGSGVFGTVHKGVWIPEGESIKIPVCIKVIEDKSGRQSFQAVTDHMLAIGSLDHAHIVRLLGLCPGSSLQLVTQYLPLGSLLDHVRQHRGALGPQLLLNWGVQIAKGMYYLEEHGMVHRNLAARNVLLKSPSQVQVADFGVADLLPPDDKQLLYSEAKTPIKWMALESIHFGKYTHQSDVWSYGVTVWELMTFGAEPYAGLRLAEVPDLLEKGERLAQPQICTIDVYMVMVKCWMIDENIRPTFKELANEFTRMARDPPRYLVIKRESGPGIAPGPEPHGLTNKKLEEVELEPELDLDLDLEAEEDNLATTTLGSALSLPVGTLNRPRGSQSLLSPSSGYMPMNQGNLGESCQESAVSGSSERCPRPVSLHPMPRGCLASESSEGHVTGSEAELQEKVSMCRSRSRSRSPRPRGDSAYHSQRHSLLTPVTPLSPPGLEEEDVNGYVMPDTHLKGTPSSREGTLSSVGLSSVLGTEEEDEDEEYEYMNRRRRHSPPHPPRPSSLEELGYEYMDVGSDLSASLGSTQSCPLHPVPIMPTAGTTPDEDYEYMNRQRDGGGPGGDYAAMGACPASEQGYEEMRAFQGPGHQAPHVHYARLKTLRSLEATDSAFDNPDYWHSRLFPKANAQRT
T3 sequence (P21860 20-643 limits assumed): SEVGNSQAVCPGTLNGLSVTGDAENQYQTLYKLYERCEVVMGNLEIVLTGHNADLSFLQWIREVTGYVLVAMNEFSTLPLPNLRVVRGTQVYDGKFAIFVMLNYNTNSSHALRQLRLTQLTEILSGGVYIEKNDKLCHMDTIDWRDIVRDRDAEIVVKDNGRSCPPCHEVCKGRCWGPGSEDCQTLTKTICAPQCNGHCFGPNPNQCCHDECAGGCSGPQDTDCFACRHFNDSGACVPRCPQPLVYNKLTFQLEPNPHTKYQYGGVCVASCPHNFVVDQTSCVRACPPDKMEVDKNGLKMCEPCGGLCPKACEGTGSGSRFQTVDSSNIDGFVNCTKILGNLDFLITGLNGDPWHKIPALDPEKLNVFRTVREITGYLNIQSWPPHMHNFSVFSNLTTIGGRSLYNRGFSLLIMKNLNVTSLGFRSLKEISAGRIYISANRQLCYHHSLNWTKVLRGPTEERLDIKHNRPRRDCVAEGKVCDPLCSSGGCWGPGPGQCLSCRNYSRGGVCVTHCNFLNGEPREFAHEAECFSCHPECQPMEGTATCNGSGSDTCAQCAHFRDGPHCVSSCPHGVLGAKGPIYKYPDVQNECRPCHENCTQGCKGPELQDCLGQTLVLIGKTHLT
T1 sequence (P21860 20-643 limits assumed): as above

B1: 588E10 (antibody, V domains shown)
VH: EVQLQQSGPKLVGPGESVKISCKGSGYTFTDYGMHWVKQSHAKRLEWIGVITIYDGHTNYNQNFKGKAALTVDKSSNTAYLELARMTSEDSAIYYCARGDYDLFWYLDVWGAGTTLTVSS
VL: DVVMTQTPLSLTVSLGDQASISCRSSQNIKHSDGNTYLEWYLQKPGQSPKLLIYKVSNRFSGVPDRFSGSGSGTDFTLKISRVEAEDLGVYFCFQGSHVPLTFGAGTKLELKR
notes: Purified mouse IgG from a hybridoma; also called 588E10-HC; 588E10-LC
As usually defined, the Kd is the constant that tells how readily two partners part at equilibrium. As a reminder, the IC50 is the concentration that gives 50% inhibition. With B1, the Kd in assay [1] came to 3.31 nM. Also, the “% Receptor Internalization (T47D cells, FACS)” value (shortened to “% Receptor Internalization”) in assay [2] came to 51%. The IC50 in the assay with Her3/Avi/His10 receptor [3] came out at 4.9 nM; with Her3/Avi/His10 receptor [9] it was 2.92 nM. For the same molecule, the “IC50 of pAKT inhibition (MCF7 cells stimulated with rhNRG1-β1, ELISA)” value (from here on “IC50 of pAKT inhibition”) in assay [4] was determined as 0.14 nM. In addition, the binding result in assay [5], in [7] and in assay [10] was “no binding” in each case. For the same molecule, in assay [6], the “IC50 of inhibition of pHer3 (MCF7 cells stimulated with rhNRG1-β1, ELISA)” value (from here on “IC50 of inhibition of pHer3”) is 90 pM. Also, in [8], the “IC50 of pERK inhibition (MCF7 cells stimulated with rhNRG1-β1, MSD)” value (shortened to “IC50 of pERK inhibition”) is 1.72 nM.

B2: 588E14 (antibody, V domains shown)
VH: EVQLQQSGPELVGPGESVKISCKGSGYAFTDYGMHWVKQSHAKRLEWIGVITIYDGHTNYNQNFKGKAALTVDKSSNTAYLELARMTSEDSAIYYCARGDYDLFWYLDVWGAGTSVTVSS
VL: DIVMTQTPLSLTVSLGDQASISCRSSQNIKHSDGNTYLEWYLQKPGQSPKLLIYKVSNRFSGVPDRFSGSGSGTDFTLKISRVEAEDLGVYFCFQGSHVPLTFGAGTKLELKR
notes: Purified mouse IgG from a hybridoma; also called 588E14-HC; 588E14-LC
As for B2, the Kd in [1] turned out to be 3.04 nM. Further, in assay [2], the “% Receptor Internalization” value was found to be 52%. Besides, the IC50 with Her3/Avi/His10 receptor [3] was determined as 2.3 nM; in the assay with Her3/Avi/His10 receptor [9] it was 1.44 nM. In addition, the binding result in assay [5], in assay [7] and in assay [10] was “no binding” throughout. Also, the “IC50 of inhibition of pHer3” value in assay [6] was determined as 70 pM. For the same molecule, the “IC50 of pERK inhibition” value in [8] was 1.82 nM.

B3: 588E22 (antibody, V domains shown)
VH: DVQLQESGPELVGPGESVKISCKGSGYTFTDYGMHWVKQSHAKRLEWIGVITIYDGHTNYNQNFKGKAALTVDKSSNTAYPELARMTSEDSAIYYCARGDYDLFWYLDVWGAGTTVTVSS
VL: DVVMTQTPLSLTVSLGDQASISCRSSQNIKHSDGNTYLEWYLQKPGQSPKLLIYKVSNRFSGVPDRFSGSGSGTDFTLKISRVEAEDLGVYFCFQGSHVPLTFGAGTKLELKR
notes: Purified mouse IgG from a hybridoma; also called 588E22-HC; 588E22-LC
Consider B3, for which, in [1], the Kd worked out at 2.78 nM. Besides, the “% Receptor Internalization” value in [2] is 53%. Moreover, the IC50 with Her3/Avi/His10 receptor [3] stood at 3.6 nM; in the assay with Her3/Avi/His10 receptor [9], 2.08 nM. The “IC50 of pAKT inhibition” value in [4] amounted to 90 pM. Further, the binding result in [5], in assay [7] and in [10] was “no binding” throughout. Also, the “IC50 of inhibition of pHer3” value in [6] is 90 pM. Moreover, the “IC50 of pERK inhibition” value in assay [8] amounted to 1.44 nM.

B4: 588F7 (antibody, V domains shown)
VH: QVQLQQPGSVLVRPGASVKLSCKASGYTFTNSWILWAKRRPGQGLEWIGEIHPNSGNTNYNEKFKGQATLTVDTSSTTAYVDLSRLTSEDSAVYYCARYEGHWGQGTLVTVSA
VL: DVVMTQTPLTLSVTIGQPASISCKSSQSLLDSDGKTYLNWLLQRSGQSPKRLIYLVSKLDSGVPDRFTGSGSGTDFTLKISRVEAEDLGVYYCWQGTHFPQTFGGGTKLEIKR
notes: Purified mouse IgG from a hybridoma; also called 588F7-HC; 588F7-LC
For the molecule B4, the binding result in assay [5], in [7] and in [10] was “no binding” each time.

B5: PO-1C9-C4 (antibody, V domains shown)
VH: QVQLQQPGSELVRPGASVKLSCKASGYTFTIFWIHWVKQRPGQGLEWIGNIYPGSGGTNYDEKFKSKATLTVDTFSSTAYMQLSSLTSEDSAVYYCTRWGTGKDYWGQGTTLTVSS
VL: DIVLTQSPAIMSASPGEKVTMTCRARSSVSSSYLHWYQQKPGSSPKLWIYSTSNLALGVPARFSGSGSGTSYSLTISSVEAEDAATYYCQQYDSSPFTFGTGTKLEIKR
notes: Purified mouse IgG from a hybridoma; also called PO-1C9-C4-HC; PO-1C9-C4-LC
Turning to B5, the Kd in assay [1] stood at 2.4 nM. Besides, the “% Receptor Internalization” value in assay [2] is 41%. For the same molecule, the IC50 with Her3/Avi/His10 receptor [3] amounted to 2.7 nM; with Her3/Avi/His10 receptor [9] it was 2.9 nM. Also, in assay [4], the “IC50 of pAKT inhibition” value stood at 9.47 nM. Further, the binding result in [5], in assay [7] and in assay [10] was “no binding” throughout. In assay [6], the “IC50 of inhibition of pHer3” value was found to be 6.99 nM. Besides, the “IC50 of pERK inhibition” value in [8] was 4.62 nM.

B6: 588F41 (antibody, V domains shown)
VH: EVQLQQSGPELVKPGASVKMSCKASGYTFTSYVMHWVKQKPGQGLEWLGYINPYNDGTKYNEKFKGMATLTSDKSSSTAYMELISLTSEDSAVYYCAREASYGNPFAYWGQGTLVTVSA
VL: DIVMTQSPASLSASVGETVTITCRTSENIYSYLAWFQQKQGNSPQLLVYNTKTLAEGVPSRFSGSGSGTQFSLKINSLQPEDFGNYYCQHHYDTPWTFGGGTKLEIKR
notes: Purified mouse IgG from a hybridoma; also called 588F41-HC; 588F41-LC
As for B6, in [1], the Kd is 3.2 nM. In addition, the “% Receptor Internalization” value in assay [2] turned out to be 59%. Further, the IC50 came out at 4.1 nM with Her3/Avi/His10 receptor [3] and 1.17 nM with Her3/Avi/His10 receptor [9]. Also, in assay [4], the “IC50 of pAKT inhibition” value came to 2.05 nM. In addition, the binding result in assay [5], in assay [7] and in assay [10] was “no binding” in each case. Further, the “IC50 of inhibition of pHer3” value in assay [6] was found to be 0.66 nM. Further, in assay [8], the “IC50 of pERK inhibition” value turned out to be 4.91 nM.

B7: 588F42 (antibody, V domains shown)
VH: EVQLQQSGPELVKPGASVKMSCKASGYTFTSYVMHWVKQKPGQGLEWLGYINPYNDGTKYNEKFKGKATLTSDKSSSTAYMELISLTSEDSAVYYCAREASYGNPFAYWGQGTLVTVSA
VL: DIVMTQSPASLSASVGETVTITCRTSENIYSYLAWFQQKQGNSPQLLVYNTKTLAEGVPSRFSGSGSGTQFSLKINSLQPEDFGNYYCQHHYDTPWTFGGGTKLEIK
notes: Purified mouse IgG from a hybridoma; also called 588F42-HC; 588F42-LC
For the molecule B7, the Kd in [1] was 3.8 nM. In assay [2], the “% Receptor Internalization” value stood at 57%. Besides, the IC50 in the assay with Her3/Avi/His10 receptor [3] was 4.6 nM; with Her3/Avi/His10 receptor [9], 3.03 nM. For the same molecule, the “IC50 of pAKT inhibition” value in assay [4] came to 1.36 nM. The binding result in [5], in [7] and in [10] was “no binding” each time. Moreover, the “IC50 of inhibition of pHer3” value in assay [6] was determined as 1.04 nM. Also, the “IC50 of pERK inhibition” value in assay [8] was found to be 1.8 nM.

The values above are taken from patent US20120195831A1 (published 2012).
